Measurements from US11932673B2, “Sodium channel inhibitors” (priority 2017, dated 2024).

Tests used:
[1] = biological target: human Nav1.7 (Homo sapiens, UniProt Q15858); assay: QPatch patch-clamp on CHO cells stably expressing human Nav1.7, four-point concentration-response (Example 21); assay type: cell-based; details: every 15-minute application of equivalent concentrations
Method: The effect of these KnotBodies on cells expressing human Nav1.7 (huNav1.7) channel was then assessed using QPatch automated patch-clamp platform (Sophion). For the testing of Nav1.7 ion channel currents, CHO cells stably expressing human Nav1.7 (GenBank accession number NM 002977; cell line catalogue number CT6003, Charles River Discovery, Cleveland, USA) were subjected to the QPatch electrophysiology assay in the presence or absence of the KnotBody fusions or the antibody isotypes (negative controls). Internal and external physiological solutions were freshly prepared prior to the assay. […] To these measured control currents four ascending concentrations (0.37, 1.1, 3.3 and 10 μM) of KnotBody or parental antibody isotypes (control molecules) were applied to the external bathing solution containing 0.1% BSA. […] The elicited, maximum outward current values measured during the −10 mV activating step for each solution period (a control, baseline level of current was determined at 15 minutes after application of the control external recording solution and a test level of current was determined after 15 minutes of application of each concentration of KnotBody or its isotype control) and average inhibition was determined. […] From these concentration-response curves IC50 values were calculated.

[2] = test system: trypsin; assay: Phage trypsin binding assay, KB_A12 versus EETI-II cow ULVC-Ab; details: PEG precipitated phage, 12.5x and 0.5x
Description: Bovine antibodies have been described with natural ultra-long VH CDR3s containing a solvent exposed double stranded antiparallel sheet approximately 20 A° in length (referred to as the stalk) presenting a folded domain stabilised by 3 disulfide bonds (referred to as the Knob)^10. Zhang and colleagues have shown that the Knob domains of these cow ultra-long VH CDR3 antibodies (ULVC-Ab) can be replaced with other folded proteins such as erythropoietin^13. In this example, we assess the ability of a cow ULVC-Ab to present functional knottin fusions on phage in comparison with a KnotBody. In order to create a Knottin-cow UCLA fusion, the sequence between the first and the last cysteines of the knob region of the Cow ULVC-Ab BLV1H12 was replaced with the sequence of the trypsin binding knottin; EETI-II (EETI-II cow ULVC-Ab). A gene fragment encoding this construct was synthesised (Integrated DNA technologies, Table 21). This synthetic gene was cloned into the phage display vector pSANG4 using restriction sites NcoI and NotI and transformed into E. coli TG1 cells. […] In this assay, the binding of phage rescued from EETI-II cow ULVC-Ab and KB_A12 to trypsin was detected using an anti-M13 antibody followed by europium conjugated anti-mouse antibody (as described in example 3).

Sequence of human Nav1.7 (Q15858 other isoform, or with tags, fused parts or gaps): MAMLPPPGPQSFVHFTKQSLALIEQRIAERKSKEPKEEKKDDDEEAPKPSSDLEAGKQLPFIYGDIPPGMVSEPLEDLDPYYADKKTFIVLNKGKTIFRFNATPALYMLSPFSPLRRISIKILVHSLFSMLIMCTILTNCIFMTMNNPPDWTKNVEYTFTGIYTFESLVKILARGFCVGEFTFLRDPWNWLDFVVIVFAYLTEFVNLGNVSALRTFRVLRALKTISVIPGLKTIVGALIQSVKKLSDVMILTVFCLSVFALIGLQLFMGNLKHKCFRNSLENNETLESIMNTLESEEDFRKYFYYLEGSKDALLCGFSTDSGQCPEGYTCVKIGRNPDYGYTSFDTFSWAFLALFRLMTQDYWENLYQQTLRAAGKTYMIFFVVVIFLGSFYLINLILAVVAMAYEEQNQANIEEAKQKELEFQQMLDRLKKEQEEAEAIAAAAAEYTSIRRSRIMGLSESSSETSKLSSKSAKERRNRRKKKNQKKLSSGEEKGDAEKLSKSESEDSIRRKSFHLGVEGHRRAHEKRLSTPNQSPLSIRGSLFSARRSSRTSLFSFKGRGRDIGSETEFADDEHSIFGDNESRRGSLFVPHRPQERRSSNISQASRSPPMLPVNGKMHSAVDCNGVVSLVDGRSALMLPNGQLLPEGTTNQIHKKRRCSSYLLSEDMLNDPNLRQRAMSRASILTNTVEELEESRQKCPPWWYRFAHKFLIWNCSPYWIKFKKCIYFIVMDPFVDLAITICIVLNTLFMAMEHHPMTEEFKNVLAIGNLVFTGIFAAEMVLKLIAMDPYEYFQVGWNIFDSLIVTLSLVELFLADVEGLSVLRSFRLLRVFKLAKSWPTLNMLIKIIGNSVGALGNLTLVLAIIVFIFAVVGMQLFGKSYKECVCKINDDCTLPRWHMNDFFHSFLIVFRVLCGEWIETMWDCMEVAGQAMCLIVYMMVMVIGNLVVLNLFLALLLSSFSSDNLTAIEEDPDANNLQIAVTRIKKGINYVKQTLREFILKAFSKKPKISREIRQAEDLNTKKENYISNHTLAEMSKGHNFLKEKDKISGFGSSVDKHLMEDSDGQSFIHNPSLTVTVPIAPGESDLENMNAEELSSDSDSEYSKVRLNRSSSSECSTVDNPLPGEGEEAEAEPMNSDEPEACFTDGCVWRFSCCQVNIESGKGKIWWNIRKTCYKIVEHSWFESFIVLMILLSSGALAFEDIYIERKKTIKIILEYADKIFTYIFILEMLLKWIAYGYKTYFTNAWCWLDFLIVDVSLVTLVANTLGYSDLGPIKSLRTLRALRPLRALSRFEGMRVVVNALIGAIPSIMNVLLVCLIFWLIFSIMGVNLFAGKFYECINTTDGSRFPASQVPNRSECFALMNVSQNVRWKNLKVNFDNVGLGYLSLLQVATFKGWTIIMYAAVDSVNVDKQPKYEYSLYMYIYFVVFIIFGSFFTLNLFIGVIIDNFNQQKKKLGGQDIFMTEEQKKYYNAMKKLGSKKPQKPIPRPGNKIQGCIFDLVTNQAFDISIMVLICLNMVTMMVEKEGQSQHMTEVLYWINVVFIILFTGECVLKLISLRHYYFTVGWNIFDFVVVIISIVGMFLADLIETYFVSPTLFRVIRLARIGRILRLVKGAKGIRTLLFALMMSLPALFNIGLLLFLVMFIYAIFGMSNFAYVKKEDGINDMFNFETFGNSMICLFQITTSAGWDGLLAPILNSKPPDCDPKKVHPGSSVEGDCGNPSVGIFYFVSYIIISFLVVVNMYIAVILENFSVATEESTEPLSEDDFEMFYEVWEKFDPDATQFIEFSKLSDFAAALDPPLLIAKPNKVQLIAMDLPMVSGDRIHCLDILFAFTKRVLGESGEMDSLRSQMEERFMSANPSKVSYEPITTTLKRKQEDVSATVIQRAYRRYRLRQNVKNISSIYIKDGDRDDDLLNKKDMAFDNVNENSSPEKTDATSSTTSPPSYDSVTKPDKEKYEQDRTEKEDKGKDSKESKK

B1: KB_A12: EETI-II VL CDR2 KnotBody, D1A12 VH, VL SEQ ID NO: 105/373; parental/isotype control (antibody, V domains shown)
VH: EVQLVESGGGLVRPGGSLRLSCAASGFTFSSYAMSWVRQAPGKGLEWVSAISGSGGSTYYADSVKGRFTISRDNTKNSLYLQMTSLRADDTAFYYCVKDFGPGYGTGWFDYWGPGTLVTVSS
VL: QSVLTQPPSVSEAPRQRVTITCSGSSSNIGNNAVNWYQQLPGKAPKLLIYAAGRCPRILMRCKQDSDCLAGCVCGPNGFCGANSGVSDRFSAAKSGTSASLAINGLRSEDEADYYCAAWDDSLNGYVFGTGTKLTVLG
cumulative current loss [1]: ~5%
phage binding to trypsin [2]: superior binding to trypsin compared to the EET-II-Cow ULVC-Ab fusion
